Experiments:
TGF-β-signalling = assay: SBE-Luc activity in TβR-deficient DR26 and R1B cells; format: cell-based, mink
Text: Having identified CYLD as a negative regulator of TGF-β-signalling and lung fibrosis, we next sought to determine how CYLD inhibits TGF-β-signalling. TGF-β-ligands bind to a type II receptor (TβRII), which recruits and phosphorylates a type I receptor (TβRI). The activated TβRI then phosphorylates the Smad subgroup known as receptor-activated Smads (R-Smad), for example, Smad3, which can bind to Co-Smad Smad4. The R-Smad and Co-Smad complex then undergoes nuclear translocation for target gene regulation. To first determine at which level CYLD inhibits TGF-β-signalling, we took advantage of the available lung epithelial cell lines, DR26 and R1B that are derived from the WT Mv1Lu cells and lack functional […] TβRI, respectively. […] We next determined whether CYLD exerts its inhibitory effect on TGF-β-signalling at the level or downstream of TβRI by assessing the effects of siCYLD on WT-Smad3-induced SBE-Luc activity in TβRI-deficient R1B cells. […] To further determine whether CYLD inhibits TGF-β-signalling by likely targeting Smad3, we next evaluated the effect of CYLD knockdown in Smad3-deficient MEF cells.
A549, HeLa and HEK293 cells were maintained in the F12-K, minimal essential medium Eagle's with Earle's balanced salt solution (EMEM), and DMEM […]. […]

[1] = system: TGF-β-induced fibrotic response; assay: TGF-β-induced fibrotic response in TRAF6-depleted cells; format: cell-based
Text: Because K14 lysine in the pleckstrin homology domain of Akt is critical for mediating its function, we next determined whether mutation of K14 lysine to arginine (R) reduces polyubiquitination of Akt. […] We further determined whether K14 residue in Akt is indeed functionally critical for mediating CYLD-induced inhibition of TGF-β-signalling. […] TNF receptor-associated factor 6 (TRAF6) was previously shown to function as an E3 ligase for Akt-K63 polyubiquitination and CYLD deubiquitinates TRAF6. Thus, we next explored the possibility that CYLD may inhibit Akt-mediated fibrotic responses via deubiquitinating TRAF6.
It is possible that CYLD may inhibit Akt-mediated fibrotic response by actually deubiquitinating TRAF6. Thus, we evaluated the effect of siCYLD on TGF-β-induced fibrotic response in TRAF6-depleted cells using siTRAF6. […] Here we have provided strong evidence that CYLD inhibits S. pneumoniae-induced Smad3-dependent fibrosis via inhibiting Akt, thereby linking CYLD to Smad3 via Akt. It is still unclear whether or not direct activation of Akt induces a fibrotic response via Smad3. Indeed, direct activation of Akt by expressing a constitutively active form of C/A-Akt induces expression of the fibrotic response gene PAI-1 and CTGF in Smad3+/+ cells, but not in Smad3−/− cells. […]

B1: siCYLD: RNA-mediated interference for downregulating CYLD expression using pSuper-CYLD, SEQ ID NO:13 (nucleic acid)
chain: GATCCCCGAGCTACTGAGGACAGAAATTCAAGAGATTTCTGTCCTCAGTAGCTCTTTTTGGAAA
modifications: expressed from pSuper vector
**Q.** B1 was tested. Which “WT-Smad3-induced SBE-Luc activation” value (TGF-β-signalling; TβRI-deficient R1B cells) did it give?
**A.** markedly enhanced

**Q.** And the “constitutively active (C/A)-TβRI-induced SBE-Luc activity” value (TGF-β-signalling; TβRII-deficient DR26 cells)?
**A.** markedly enhanced

**Q.** And the TGF-β-induced fibrotic response [1]?
**A.** still enhanced

— patent US9951335B2, “Compositions and methods for treating otitis media and other conditions with inhibitors of CYLD” (Georgia State University Research Foundation, Inc., priority 2012, dated 2018)
